The target in data set [1] is T1, Smc5 hinge (extended-hinge);Smc6 hinge (extended-hinge) (Schizosaccharomyces …, UniProt O13710;P53692 364-692;462-773, |).
T1 sequence 1: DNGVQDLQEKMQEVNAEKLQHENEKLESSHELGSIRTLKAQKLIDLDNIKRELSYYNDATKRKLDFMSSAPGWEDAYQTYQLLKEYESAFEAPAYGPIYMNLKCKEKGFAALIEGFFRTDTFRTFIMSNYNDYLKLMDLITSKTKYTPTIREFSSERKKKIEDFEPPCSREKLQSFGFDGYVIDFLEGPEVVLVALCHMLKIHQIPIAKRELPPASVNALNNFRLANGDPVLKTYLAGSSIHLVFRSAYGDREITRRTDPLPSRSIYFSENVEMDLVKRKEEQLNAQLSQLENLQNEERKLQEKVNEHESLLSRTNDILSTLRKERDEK
T1 sequence 2: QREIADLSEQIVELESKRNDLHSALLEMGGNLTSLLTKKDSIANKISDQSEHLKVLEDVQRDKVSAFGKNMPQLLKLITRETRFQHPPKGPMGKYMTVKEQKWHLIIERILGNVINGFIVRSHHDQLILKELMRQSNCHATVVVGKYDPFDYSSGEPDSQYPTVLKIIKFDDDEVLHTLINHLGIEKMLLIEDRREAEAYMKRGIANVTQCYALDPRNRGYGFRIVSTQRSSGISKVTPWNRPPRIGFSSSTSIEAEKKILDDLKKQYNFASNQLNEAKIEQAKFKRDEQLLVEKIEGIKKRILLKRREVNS
Kind of data set: switchSENSE; biphasic association and dissociation; 20 mM HEPES.NaOH pH 7.5, 100 mM NaCl, 1 mM EDTA, 0.5 mM TCEP, room temperature 10 min, 100 nM DNA (FP, EMSA); pull-down same buffer, protein incubation 4 C 30 min; switchSENSE buffer not given. Conditions: protein: recombinant;recombinant, tags: N-terminal His6, HRV-3C cleaved;N-terminal StrepII, copies: 1;1, label: 3' Cy3, single strand, immobilized on gold. On the technique in general: In EMSA bound probe runs differently from free probe, usually more slowly.

Data set [2] deals with T2, Smc5 hinge (extended-hinge);Smc6 hinge F528A (Schizosaccharomyces …, UniProt O13710;P53692 364-692;462-773, |F528A).
T2 sequence 1: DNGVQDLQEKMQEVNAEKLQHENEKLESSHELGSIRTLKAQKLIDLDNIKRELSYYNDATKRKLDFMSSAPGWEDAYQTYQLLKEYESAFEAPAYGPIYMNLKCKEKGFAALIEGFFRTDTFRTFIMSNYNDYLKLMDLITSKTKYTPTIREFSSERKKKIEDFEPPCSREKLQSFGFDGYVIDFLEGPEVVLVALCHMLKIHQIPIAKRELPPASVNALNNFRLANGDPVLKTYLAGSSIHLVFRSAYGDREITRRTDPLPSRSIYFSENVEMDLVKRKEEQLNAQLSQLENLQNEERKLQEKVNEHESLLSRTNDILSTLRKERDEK
T2 sequence 2: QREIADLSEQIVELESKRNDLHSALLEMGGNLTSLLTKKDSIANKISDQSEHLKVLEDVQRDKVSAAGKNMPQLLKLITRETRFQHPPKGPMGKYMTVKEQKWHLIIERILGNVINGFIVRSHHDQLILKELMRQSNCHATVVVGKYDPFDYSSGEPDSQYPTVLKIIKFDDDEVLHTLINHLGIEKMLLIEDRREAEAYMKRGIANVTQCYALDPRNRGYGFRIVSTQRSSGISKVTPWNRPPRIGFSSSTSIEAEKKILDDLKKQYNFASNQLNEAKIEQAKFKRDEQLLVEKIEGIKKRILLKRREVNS
Kind of data set: fluorescence polarization; 20 mM HEPES.NaOH pH 7.5, 100 mM NaCl, 1 mM EDTA, 0.5 mM TCEP, room temperature 10 min, 100 nM DNA (FP, EMSA); pull-down same buffer, protein incubation 4 C 30 min; switchSENSE buffer not given. Conditions: protein: recombinant;recombinant, tags: N-terminal His6, HRV-3C cleaved;N-terminal StrepII, copies: 1;1, label: 5' fluorescein, single strand.

The target in data set [3] is T3, Smc5 hinge (extended-hinge);Smc6 hinge R706C (Schizosaccharomyces …, UniProt O13710;P53692 364-692;462-773, |R706C).
T3 sequence 1: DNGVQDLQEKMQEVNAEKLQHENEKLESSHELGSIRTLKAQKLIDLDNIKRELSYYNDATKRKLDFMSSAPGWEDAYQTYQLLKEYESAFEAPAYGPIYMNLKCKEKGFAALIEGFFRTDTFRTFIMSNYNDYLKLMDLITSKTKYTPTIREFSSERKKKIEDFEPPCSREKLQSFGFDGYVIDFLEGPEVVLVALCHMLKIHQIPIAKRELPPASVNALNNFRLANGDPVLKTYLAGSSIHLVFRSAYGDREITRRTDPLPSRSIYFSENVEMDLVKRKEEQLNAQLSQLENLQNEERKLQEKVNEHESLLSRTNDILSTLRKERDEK
T3 sequence 2: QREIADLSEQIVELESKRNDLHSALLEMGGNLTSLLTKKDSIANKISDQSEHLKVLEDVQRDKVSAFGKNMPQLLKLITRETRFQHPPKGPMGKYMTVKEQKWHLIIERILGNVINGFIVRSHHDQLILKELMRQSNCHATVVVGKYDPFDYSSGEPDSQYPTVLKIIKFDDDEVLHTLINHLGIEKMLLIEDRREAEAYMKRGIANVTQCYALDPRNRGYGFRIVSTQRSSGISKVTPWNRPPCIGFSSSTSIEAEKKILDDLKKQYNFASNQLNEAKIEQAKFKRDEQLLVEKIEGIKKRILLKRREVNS
The data set is described as above. Conditions: protein: recombinant;recombinant, tags: N-terminal His6, HRV-3C cleaved;N-terminal StrepII, copies: 1;1, label: 5' fluorescein, single strand.

In data set [4] the target is T1, Smc5 hinge (extended-hinge);Smc6 hinge …. The description is as above. Conditions: protein: recombinant;recombinant, tags: N-terminal His6, HRV-3C cleaved;N-terminal StrepII, copies: 1;1, label: 5' fluorescein, single strand.
The target in data set [5] is T4, Smc5 hinge Y612A;Smc6 hinge (extended-hinge) (Schizosaccharomyces …, UniProt O13710;P53692 364-692;462-773, Y612A|).
T4 sequence 1: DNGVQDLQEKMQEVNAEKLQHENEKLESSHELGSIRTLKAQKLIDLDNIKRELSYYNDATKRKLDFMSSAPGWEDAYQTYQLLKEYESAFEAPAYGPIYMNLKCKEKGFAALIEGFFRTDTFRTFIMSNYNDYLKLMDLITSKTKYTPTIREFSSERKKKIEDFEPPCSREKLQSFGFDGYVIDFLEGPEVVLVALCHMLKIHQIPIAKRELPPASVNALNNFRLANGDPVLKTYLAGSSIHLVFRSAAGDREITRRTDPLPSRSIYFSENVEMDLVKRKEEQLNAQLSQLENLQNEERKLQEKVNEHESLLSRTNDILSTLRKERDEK
T4 sequence 2: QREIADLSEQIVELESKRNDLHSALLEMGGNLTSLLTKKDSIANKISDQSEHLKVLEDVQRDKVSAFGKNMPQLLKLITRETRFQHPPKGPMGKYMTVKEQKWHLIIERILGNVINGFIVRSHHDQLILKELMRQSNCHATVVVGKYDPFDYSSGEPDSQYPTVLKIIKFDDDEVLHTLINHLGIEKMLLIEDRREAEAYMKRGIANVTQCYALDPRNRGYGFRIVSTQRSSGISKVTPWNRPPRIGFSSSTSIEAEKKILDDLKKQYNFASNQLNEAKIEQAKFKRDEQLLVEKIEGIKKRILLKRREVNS
The data set is described as above. Conditions: protein: recombinant;recombinant, tags: N-terminal His6, HRV-3C cleaved;N-terminal StrepII, copies: 1;1, label: 5' fluorescein, single strand.

B1: switchSENSE 48mer (ssDNA)
DNA: GTGTGAACCCTCCAACAAAGGTAGCATTTGCCAGCTCTCGTGATGCAG
modifications: 5' HS-(CH2)6 thiol linker
For B1, the binding result in data set [1] is “binds”.

B2: 15mer (ssDNA)
DNA: GCTCGTCTGGCTCTG
As a reminder, the Kd is the equilibrium constant for the complex coming apart. Take B2: the Kd in data set [2] is roughly 1700 nM; in data set [3] it was roughly 1600 nM; in data set [4], roughly 1200 nM; in data set [5], roughly 1300 nM.

For the origin of these results see PMC5290277, “Specialized interfaces of Smc5/6 control hinge stability and DNA association”.
